Measured values reported in US20130121915A1.
Substitutions are numbered along the chain they refer to.

Columns and labels:
[1] = target: FhuA7/10-1 with histidine tag; experiment: cell-based or functional assay
[2] = test system: wild type OprD (FadL-OprD with C-terminal two glycines and 6 histidines)
[3] = target: T1, native OPRD pseudomonas aeruginosa beta barrel channel polypeptide, expressed with surface antigen D15 signal peptide and a tag
T1 chain: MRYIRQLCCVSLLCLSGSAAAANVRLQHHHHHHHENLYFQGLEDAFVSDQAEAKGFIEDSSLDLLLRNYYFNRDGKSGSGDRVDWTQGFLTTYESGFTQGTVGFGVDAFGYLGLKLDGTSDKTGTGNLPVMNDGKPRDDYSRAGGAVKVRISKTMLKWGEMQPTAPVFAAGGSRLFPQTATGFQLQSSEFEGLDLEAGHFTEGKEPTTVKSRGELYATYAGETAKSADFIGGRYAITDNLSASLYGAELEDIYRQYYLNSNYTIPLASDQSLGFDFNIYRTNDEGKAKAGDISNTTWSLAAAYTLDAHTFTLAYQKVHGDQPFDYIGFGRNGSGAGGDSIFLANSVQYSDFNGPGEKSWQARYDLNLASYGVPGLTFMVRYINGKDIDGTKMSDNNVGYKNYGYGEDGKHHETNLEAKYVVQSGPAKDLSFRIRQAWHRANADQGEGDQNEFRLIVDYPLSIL

[4] = target: T2, OprD mutant L8 mmp7turk#3
T2 chain: T1 chain with G398A, K400S, N401L, Y402T, G403A, Y404G

[5] = target: T3, wild type OprD (FadL-OprD with C-terminal two glycines and 6 histidines)
T3 chain: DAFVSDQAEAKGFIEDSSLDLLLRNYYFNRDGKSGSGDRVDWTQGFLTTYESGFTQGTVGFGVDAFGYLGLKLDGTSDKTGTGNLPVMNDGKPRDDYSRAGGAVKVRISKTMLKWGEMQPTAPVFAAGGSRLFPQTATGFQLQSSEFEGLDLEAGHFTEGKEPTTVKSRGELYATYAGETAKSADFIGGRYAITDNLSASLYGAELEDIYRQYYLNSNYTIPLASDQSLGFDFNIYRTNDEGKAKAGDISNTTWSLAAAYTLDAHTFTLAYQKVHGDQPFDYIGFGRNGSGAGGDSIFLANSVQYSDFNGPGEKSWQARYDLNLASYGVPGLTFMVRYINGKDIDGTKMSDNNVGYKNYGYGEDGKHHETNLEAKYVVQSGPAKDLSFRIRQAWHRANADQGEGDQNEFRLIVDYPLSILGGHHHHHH

[6] = target: T4, FhuA7/10-1 with histidine tag
T4 chain: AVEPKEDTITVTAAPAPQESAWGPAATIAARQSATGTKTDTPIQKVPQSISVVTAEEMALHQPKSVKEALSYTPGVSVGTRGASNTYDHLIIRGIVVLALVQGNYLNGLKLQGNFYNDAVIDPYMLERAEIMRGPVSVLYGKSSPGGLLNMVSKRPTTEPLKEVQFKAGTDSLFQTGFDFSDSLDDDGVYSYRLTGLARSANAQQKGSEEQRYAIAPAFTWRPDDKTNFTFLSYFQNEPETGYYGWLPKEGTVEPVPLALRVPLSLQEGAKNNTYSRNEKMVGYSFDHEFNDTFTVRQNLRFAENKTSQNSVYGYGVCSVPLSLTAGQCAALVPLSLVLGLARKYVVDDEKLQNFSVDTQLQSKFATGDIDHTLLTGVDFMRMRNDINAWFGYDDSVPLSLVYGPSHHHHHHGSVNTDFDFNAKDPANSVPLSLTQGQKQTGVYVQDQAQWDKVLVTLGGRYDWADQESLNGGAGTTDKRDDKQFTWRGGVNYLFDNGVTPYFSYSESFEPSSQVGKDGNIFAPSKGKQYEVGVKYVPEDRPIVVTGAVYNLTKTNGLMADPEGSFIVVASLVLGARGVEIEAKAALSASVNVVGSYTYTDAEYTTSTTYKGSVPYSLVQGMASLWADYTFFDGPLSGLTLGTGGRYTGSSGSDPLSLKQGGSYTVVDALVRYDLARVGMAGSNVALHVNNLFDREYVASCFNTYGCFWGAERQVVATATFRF

Molecule: human matrix metalloproteases seven (MMP-7, Calbiochem, cat #444270) (from UniProt P09237 95-267) (enzyme)
- inward ionic current, whole-cell patch clamp of HEK293T cells expressing FhuA7/10-1 after addition of MMP-7 [1]: 20000 >=

Molecule: enterokinase (Novagen, cat#69066-3)
- proteolysis over time, gel bands (OprD mutant L8rek#1): incubating enterokinase with the mutant L8rek#1 (SEQ ID NO: 22798) shows specific cleavage since band “a” disappears and band “b” becomes more apparent over time
- proteolysis over time, gel bands [2]: Incubation of enterokinase with the wild type OprD yields a non specific band, that does not increase over time

Molecule: factor Xa (Novagen, cat#69036-3)
- proteolysis over time, gel bands [2]: Incubation of Factor X enzyme with the wild type OPRD yields a few non specific bands
- proteolysis over time, gel bands (OprD mutant L8fxa#1): incubation of factor X with mutant L8fxa#1 (SEQ ID NO: 22788) shows specific cleavage, since bands “a” and “b” become more apparent with time

B1: human matrix metalloproteases seven (MMP-7, Calbiochem, cat #444270) (protein)
chain: YSLFPNSPKWTSKVVTYRIVSYTRDLPHITVDRLVSKALNMWGKEIPLHFRKVVWGTADIMIGFARGAHGDSYPFDGPGNTLAHAFAPGTGLGGDAHFDEDERWTDGSSLGINFLYAATHELGHSLGMGHSSDPNAVMYPTYGNGDPQNFKLSQDDIKGIQKLYGKRSNSRKK
- cleavage, Western blot [3]: the native protein (solubilized in DDM) was not cleaved in the presence of MMP-7 (concentration 0.25 Units per 16 ug of total protein)
- proteolysis, gel bands [4]: incubating mmp7 with the mutant L8 mmp7turk#3 (SEQ ID NO: 22836) shows cleavage as the main protein band disappears
- proteolysis, gel bands [5]: Incubation of MMP7 with wild type OprD yields a few non specific bands, compared with the control sample held at the same temperature for 24 hours but with out the MMP7
- cleavage kinetics 0 to 720 min, Western blot and densitometry [6]: the amount of uncleaved protein (˜81 kDa, indicated by ‘a’) decreases while the amount of the cleaved one increases (˜57 kDa, indicated by ‘b’); after 12 hours all His-tagged polypeptides (˜81 kDa) completely disappear along with the ˜57- and ˜37-kDa bands
- cleavage of membrane-integrated FhuA7/10-1, Western blot with anti-His5 [6]: Incubation of the membranes with human MMP-7 for 30 minutes at 37 °C resulted in the appearance of ˜57- and ˜37-kDa bands
